Molecular target: the molecule itself
Assay: SEC + AUC; 2 mL of 3 mg/mL purified PKM2 on Superdex 200 pg 16/600, 1 mL/min, UV 280 nm; peaks identified by analytical ultracentrifuge (results: sucrose gradient ultracentrifugation); monomer and tetramer fractions isolated

B1: recombinant PKM2 C424S (enzyme)
chain: not shown
notes: Pyruvate kinase M2 (PKM2) with C424S; likely made in E. coli like the wild type; also called rPKM2 protein with C424 mutation; source: purified (plasmid pET28a-PKM2 C424S)
stoichiometry N: 4

From publication PMC6783512, “Dimethylaminomicheliolide (DMAMCL) Suppresses the Proliferation of Glioblastoma Cells via Targeting Pyruvate Kinase 2 (PKM2) and Rewiring Aerobic Glycolysis” (Frontiers in Oncology, 2019)
